Reference: patent publication US20170290892A1, “POLYMERIC […]” (PEG BIOSCIENCES, INC., priority 2014, published 2017)

Assay: Degradation of 20K OGF-PEG ester conjugate and release of OGF in human plasma at 37 °C
Type: in vitro ADME
Settings: incubated in human plasma at 37 °C, 0.5 to 24 hours; reversed-phase HPLC or size exclusion chromatography
Procedure: Experiments for degradation of the 20K Tyr-gly-gly-phe-met-C(O)—O-mPEG conjugate (20K OGF-C(O)—O-mPEG or 20K OGF—PEG ester) and the release of OGF were conducted in human plasma at 37 ° C. The OGF—PEG conjugate containing hydrolysable ester linkages was incubated in human plasma at 37° C. for various periods of time, ranging from 0.5 to 24 hours. An aliquot plasma sample was withdrawn and treated with acetonitrile or acetonitrile/methanol organic solvent, vortexed, centrifuged, and concentrated. The solution residue was then analyzed by reversed-phase HPLC chromatography or size exclusion chromatography to check the amount of OGF-PEG and the released amount of OGF at various time points. The plasma T1/2 for 20K OGF-C(O)—O-mPEG was about 5 hours.

With “20K Tyr-Gly-Gly-Phe-Met-C(O)O-mPEG [20K OGF-C(O)—O-mPEG]” the “plasma T1/2” value was “about 5 hours”.
